# Experiment: soluble on expression in E. coli; label from the status in PepcDB or PDB records
sequence,measurement,value
MEGQRWLPLEANPEVTNQFLKQLGLHPNWQFVDVYGMDPELLSMVPRPVCAVLLLFPITEKYEVFRTEEEEKIKSQGQDVTSSVYFMKQTISNACGTIGLIHAIANNKDKMHFESGSTLKKFLEESVSMSPEERARYLENYDAIRVTHETSAHEGQTEAPSIDEKVDLHFIALVHVDGHLYELDGRKPFPINHGETSDETLLEDAIEVCKKFMERDPDELRFNAIALSAA,soluble on expression in E. coli,soluble
MGSDKIHHHHHHMHGKLVEVADGVYAYIQGRGEWFVNNAGLIVGEEFSVVVDSVCNEQRAKEMISQFREVTAKDFRILINTHGHPDHVWTNHLFDAVAVAHEMGRQETLMAFVEIYQSLFPDLDFSGAKITPQNITFESRMKLYNDAEMQIIHPGVAHTRGDCYIYIPQKKVVFCGDLLFAKPCTPLAVGGSVRGSVNALRELLNLDAKIYVPGHGGLAGEEHLVEAIEYFEFVWEEAKKRHERGMGWYEAAMDIDLGEYAKWSEAERIVGNVARAYAEIEGRELEFAELVEVARKMLEYGGGRK,soluble on expression in E. coli,not soluble
GPGSMASSKVILEDTFTVAAVNEEGTVYSRVSRVRCTGEGGGLIITSDVNTGEFPLHSGDRLTIILTDSIELSEQAGSKHYDQSVYHRSTRLDDCDYAMHGRVYSMEVNESSLDVTVHISCGGLLTQIVGKPQSLKDVHYNSDVYILMKRPGS,soluble on expression in E. coli,soluble
MNVIVEISDRLGMDYYFVSVTTTAKSLQLNSPKKYYKIWHQEIPYHQITEWHLTQQEDIQEISFAWQETFYRFVDYGTGIVPYLTQFCKVMR,soluble on expression in E. coli,not soluble
MAHHHHHHMKKHKVPCKKFYRQRAHCNPLSDSYIRYPINCSYVDWRVHYPHLAAHGSDAQAEPINSVEATKHITNTEVERPPDEDPPTLQLNTNKYPIDYNQGPPKCAPHAEVTILDIGCGYGGLLFELSKTFPNKLILGMEIRDKITNYVGEKIHSYRKNYPPQYKNISVVRTNAMKFLPNYIKKNQIEKLFFCFPDPHFKKQNWRRRTITIESLSLYYYLLKRDGLIYFITDVYTLFLWVRFCFSKYPGFRLLSPEECQGDICVRLIHHSSEESKRVSKNKQAMYFCVARKE,soluble on expression in E. coli,not soluble
MGSDKIHHHHHHMRLDLFFDRLLSTEGDKLATVAKNTILEPSVAYFDFTASGLAYRTIEERIASILPRYANTHSEVTNHALFMTELYDEARANLKRHMDLDEEFALFPCGNGSTGAIKKFQELMGLYLPPRTQKRLSLTPDPALFPVVFVGPYEHHSNEVSYRESPCEVVRIPLDSRGLVDMGVLRAKLGEYQGREIITSFSLASNVTGIIIPYEEISALIRKAGGIVTFDMATASSYMNIPSKFFDAAFFSPHKLLGGVGSCGLLAMRKSLIDSTLPPTFAGGGTVTYVSRIDQYYREDPEYREDAGTPGVLQLLRASLAYQLRNEVGLEFIAKRKKELCAPLVEALRKMERVKIYGDIESCNRLGIFAINIEGISPYEVCQRLSREYLIETRAGCSCAGPYGHDLLGLKDDGLFASRPGWVRISVHYSHSLEQIERLLGALEEIARD,soluble on expression in E. coli,not soluble
MSLVACECLPSPGLEPEPCSRARSQAHVYLEQIRNRVALGVPDMTKRDYLVDAATQIRLALERDVSEDYEAAFNHYQNGVDVLLRGIHVDPNKERREAVKLKITKYLRRAEEIFNCHLQRPLSSGASPSAVQLVQDPATGGTFVVKSLPRCHMVSRERLTIIPHGVPYMTKLLRYFVSEDSIFLHLEHVQGGTLWSHLLSQAHSRHSGLSSGSTQERMKAQLNPHLNLLTPARLPSGHAPGQDRIALEPPRTSPNLLLAGEAPSTRPQREAEGEPTARTSTSGSSDLPKAPGGHLHLQARRAGQNSDAGPPRGLTWVPEGAGPVLGGCGRGMDQSCLSADGAGRGCGRATWSVREEQVKQWAAEMLVALEALHEQGVLCRDLHPGNLLLDQAGHIRLTYFGQWSEVEPQCCGEAVDNLYSAPEVGGISELTEACDWWSFGSLLYELLTGMALSQSHPSGIQAHTQLQLPEWLSRPAASLLTELLQFEPTRRLGMGEGGVSKLKSHPFFSTIQWSKLVGTSLETHLRTLIHWLSGPKPDCPG,soluble on expression in E. coli,soluble
MAIQHPDIQPAVNHSVQVAIAGAGPVGLMMANYLGQMGIDVLVVEKLDKLIDYPRAIGIDDEALRTMQSVGLVDDVLPHTTPWHAMRFLTPKGRCFADIQPMTDEFGWPRRNAFIQPQVDAVMLEGVSRFPNVRCLFSRELEAFSQQDDEVTLHLKTAEGQREIVKAQWLVACDGGASFVRRTLNVPFEGKTAPNQWIVVDIANDPLSTPHIYLCCDPVRPYVSAALPHAVRRFEFMVMPGETEEQLREPQNMRKLLSKVLPNPDNVELIRQRVYTHNARLAQRFRIDRVLLAGDAAHIMPVWQGQGYNSGMRDAFNLAWKLALVIQGKARDALLDTYQQERRDHAKAMIDLSVTAGNVLAPPKRWQGTLRDGVSWLLNYLPPVKRYFLEMRFKPMPQYYGGALMREGEAKHSPVGKMFIQPKVTLENGDVTLLDNAIGANFAVIGWGCNPLWGMSDEQIQQWRALGTRFIQVVPEVQIHTAQDNHDGVLRVGDTQGRLRSWFAQHNASLVVMRPDRFVAATAIPQTLGKTLNKLASVMTLTRPDADVSVEKVA,soluble on expression in E. coli,soluble
TPSRVEAFDNSNIHGTDPVSAMVTFLDGKPSKNDYRKYKIKTVEGPDDYATMREVIRRRYWRVLKEGLPMPDLILIDGGKGQIDSAKDVLTNELGLDIPVAGLAKDDKHRTSQLLFGDPLEIVPLERNSQEFYLLQRMQDEVHRFAITFHRQLRSKTGFQSILDGIPG,soluble on expression in E. coli,not soluble
GMSRSPFQTFVWRSEIFECQSTDIQRFYSLLAIETERLGLGSKILGQAGHHPLYLLQSPGQKAGLPNLLISAGFHGEESAGPWGLLHFLSQLDGELFKRVNLSVLPLVNPTGFAKGHRFNELGENPNRGFFIENGKAKPGADTSAEGRILLEHAHLLQVASRDGILTCHEDVLMTDTYVYTFEPSQAPGRFSHSLRDALGQYFPIAADGDVDNCPVRSGVIFNHFDTSFESFLVRSGARVGCCSETPGQQPLDQRILANAAAMNTFVNMLAPELS,soluble on expression in E. coli,soluble
MIKFNIRGENVEVTDAIRAYVEDKIGKLDKYFNDGHEVTAYVNLKVYSEKRAKVEVTLPAKNVTLRAEDTSQDMYSSIDFVEEKLERQIRKYKTRMNRKPRNAVPTGQAFGDEFAPLEKADEVAEDHVDIVRTKHVALKPMDAEEAVLQMDMLGHDFYVFTDADSNGTHVVYRRTDGRYGLIETELEHHHHHH,soluble on expression in E. coli,soluble
MLLAYSMKVVYHLFSGGKDSSLAAWILKKLGYEVKLITITFGVLDNWKFARETAEILGFDHEVIEMPIGILEKATEMCIKEGRAGNAIQYIHERALEYIASREEVKRISDGTRRDDRVPFLDLSKARSLEDRYNVAYIRPLLGLGYKTIRELVNEIFVVVEDESEKVQKGDYETELRELIRRKGHDPSQIFPKRHVQSRVVGLR,soluble on expression in E. coli,not soluble
MDHHSKAKELLQQRDELDGKIKELMLVLETNNSTMDSPLLDAEGYPLNTIDVYAVRHARHDLICLRNDRAALTEKIVVEMENENKEVSGQTATSEEKPVHRTSNEPFVKISSVVELSPADIGGFRKDDLIIQYGNLHHGNFNDMQEVAQITKQSEDKIIRVTVIRENRPVRLEICPKKWSGPGLLGCNIVPISGANV,soluble on expression in E. coli,not soluble
MTLHKPTQAVPCRAPKVGRLIYTAGGYFRQSLSYLEAYNPSNGSWLRLADLQVPRSGLAGCVVGGLLYAVGGRNNSPDGNTDSSALDCYNPMTNQWSPCASMSVPRNRIGVGVIDGHIYAVGGSHGCIHHSSVERYEPERDEWHLVAPMLTRRIGVGVAVLNRLLYAVGGFDGTNRLNSAECYYPERNEWRMITPMNTIRSGAGVCVLHNCIYAAGGYDGQDQLNSVERYDVETETWTFVAPMRHHRSALGITVHQGKIYVLGGYDGHTFLDSVECYDPDSDTWSEVTRMTSGRSGVGVAVTMEPCRKQIDQQNCTCY,soluble on expression in E. coli,soluble
MAGDPMGSKNESTASKASGTASEKKKIEYLDKTYEVTVPTDKIAITGSVESMEDAKLLDVHPQGAISFSGKFPDMFKDITDKAEPTGEKMEPNIEKILEMKPDVILASTKFPEKTLQKISTAGTTIPVSHISSNWKENMMLLAQLTGKEKKAKKIIADYEQDLKEIKTKINDKAKDSKALVIRIRQGNIYIYPEQVYFNSTLYGDLGLKAPNEVKAAKAQELSSLEKLSEMNPDHIFVQFSDDENADKPDALKDLEKNPIWKSLKAVKEDHVYVNSVDPLAQGGTAWSKVRFLKAAAEKLTQNLEHHHHHH,soluble on expression in E. coli,soluble

# From the DeepSol protein solubility set
